From the Immune Epitope Database (IEDB)

Tests used:
HLA-B*40:01 = assay: IEDB peptide-MHC binding, purified MHC/direct/fluorescence; filed as Kd, often an IC50 or EC50 that approximates it; ≥ and ≤ were set here for values at or beyond the usual limits of such assays
HLA-B*51:01 = assay: IEDB peptide-MHC binding, purified MHC/competitive/radioactivity; filed as Kd, often an IC50 or EC50 that approximates it; ≥ and ≤ were set here for values at or beyond the usual limits of such assays
HLA-A*03:01 = assay: IEDB peptide-MHC binding, purified MHC/direct/fluorescence; filed as Kd, often an IC50 or EC50 that approximates it; ≥ and ≤ were set here for values at or beyond the usual limits of such assays
HLA-A*11:01 = assay: as above
HLA-B*53:01 = assay: IEDB peptide-MHC binding, purified MHC/competitive/radioactivity; filed as Kd, often an IC50 or EC50 that approximates it; ≥ and ≤ were set here for values at or beyond the usual limits of such assays
HLA-A*69:01 = assay: IEDB peptide-MHC binding, purified MHC/direct/fluorescence; filed as Kd, often an IC50 or EC50 that approximates it; ≥ and ≤ were set here for values at or beyond the usual limits of such assays
HLA-A*02:01 [1] = assay: as above
HLA-B*58:01 = assay: as above
HLA-A*02:01 [2] = assay: IEDB peptide-MHC binding, purified MHC/competitive/fluorescence; filed as Kd, often an IC50 or EC50 that approximates it; ≥ and ≤ were set here for values at or beyond the usual limits of such assays
HLA-A*30:02 = assay: IEDB peptide-MHC binding, purified MHC/competitive/radioactivity; filed as Kd, often an IC50 or EC50 that approximates it; ≥ and ≤ were set here for values at or beyond the usual limits of such assays
HLA-B*07:02 = assay: IEDB peptide-MHC binding, purified MHC/direct/fluorescence; filed as Kd, often an IC50 or EC50 that approximates it; ≥ and ≤ were set here for values at or beyond the usual limits of such assays
HLA-A*02:06 = assay: IEDB peptide-MHC binding, purified MHC/competitive/radioactivity; filed as Kd, often an IC50 or EC50 that approximates it; ≥ and ≤ were set here for values at or beyond the usual limits of such assays
HLA-A*02:03 = assay: as above
HLA-A*02:02 = assay: as above
HLA-A*01:01 = assay: IEDB peptide-MHC binding, purified MHC/direct/fluorescence; filed as Kd, often an IC50 or EC50 that approximates it; ≥ and ≤ were set here for values at or beyond the usual limits of such assays; details: source organism: Amur virus
HLA-B*15:01 = assay: as above
[3] = source organism: Dengue virus 3 Martinique/1243/1999
[4] = source organism: Francisella tularensis subsp. holarctica LVS
[5] = source organism: Dengue virus 2 Jamaica/1409/1983
[6] = source organism: Burkholderia pseudomallei
[7] = source organism: Pseudomonas aeruginosa
[8] = source organism: Dengue virus 1 Brazil/97-11/1997
[9] = source organism: Cryptosporidium hominis
[10] = source organism: Dengue virus 4 Philippines/H241/1956
[11] = source organism: Cryptosporidium parvum
[12] = source organism: Mammarenavirus juninense
[13] = source organism: Vaccinia virus WR
[14] = source organism: SARS coronavirus Tor2
[15] = source organism: Mammarenavirus whitewaterense
[16] = source organism: Vibrio vulnificus

EEFFCVHGM
Kd (HLA-B*40:01; source organism: Mycobacterium tuberculosis): 167 nM

VAWRTATLI
Kd (HLA-B*51:01; [3]): 137 nM

KLYSYGIGY
Kd (HLA-A*03:01; [4]): 1.4 nM | Kd (HLA-A*11:01; [4]): 75.4 nM

PPTAGILKRW
Kd (HLA-B*53:01; [5]): 3270 nM

DAAVVFPPV
Kd (HLA-A*69:01; [6]): 0.4 nM | Kd (HLA-A*02:01 [1]; [6]): ≥ 20000 nM

KGGEAQFLV
Kd (HLA-B*58:01; [7]): 738 nM

YAQIQPHWI
Kd (HLA-B*51:01; [5]): 1080 nM

ILLSCIHTT
Kd (HLA-A*02:01 [2]; source organism: Vaccinia virus Copenhagen): 1.2 nM

TPEGEVGAI
Kd (HLA-B*53:01; [8]): ≥ 40200 nM

SGFGGETPV
Kd (HLA-A*69:01; [9]): 13500 nM | Kd (HLA-A*02:01 [1]; [9]): 863 nM

CAIILGGLTW
Kd (HLA-B*53:01; [10]): 549 nM

VLSLIGLKR
Kd (HLA-A*11:01; source organism: West Nile virus): ≥ 20000 nM

GCGRGGWSYY
Kd (HLA-A*30:02; [3]): 9.43 nM

STKNILVTV
Kd (HLA-A*69:01; [11]): 60.7 nM | Kd (HLA-A*02:01 [1]; [11]): 416 nM

LAYVVIGIL
Kd (HLA-B*51:01; [3]): 1320 nM

VPLAGPMVA
Kd (HLA-B*51:01; [10]): 17000 nM

YPAEITLTW
Kd (HLA-B*07:02; source organism: Homo sapiens): 147 nM | Kd (HLA-B*58:01; source organism: Homo sapiens): 55 nM

KISNTTFEV
Kd (HLA-A*02:01 [2]; source organism: Vaccinia virus): 1.9 nM

IMKQAASMK
Kd (HLA-A*03:01; source organism: Giardia lamblia ATCC 50803): 63.5 nM

VHQVFGTAY
Kd (HLA-A*30:02; [8]): 599 nM

TSLGLLYTV
Kd (HLA-A*02:06; [12]): 4.17 nM | Kd (HLA-A*02:03; [12]): 405 nM | Kd (HLA-A*02:02; [12]): 933 nM

IASKINNNRI
Kd (HLA-A*02:06; [13]): 9420 nM | Kd (HLA-A*02:03; [13]): 18500 nM | Kd (HLA-A*02:02; [13]): 732 nM

LTSSSKYTY
Kd (HLA-A*01:01): 33 nM

TKLEGKIVQY
Kd (HLA-A*30:02; [8]): 7040 nM

SVKEDLVAY
Kd (HLA-B*15:01; source organism: Yellow fever virus 17D): 95.5 nM

NTIDKSSPL
Kd (HLA-A*02:06; [13]): 18.6 nM | Kd (HLA-A*02:03; [13]): 27.1 nM | Kd (HLA-A*02:02; [13]): 82.3 nM

VMGITAEWLW
Kd (HLA-B*53:01; [3]): 39.9 nM

PLKDVERLQM
Kd (HLA-A*02:06; [13]): ≥ 37300 nM | Kd (HLA-A*02:03; [13]): ≥ 44000 nM | Kd (HLA-A*02:02; [13]): 6160 nM

NQGNILMDSI
Kd (HLA-A*02:06; [13]): 3090 nM | Kd (HLA-A*02:03; [13]): 4040 nM | Kd (HLA-A*02:02; [13]): 3930 nM

VMFNGVTFST
Kd (HLA-A*02:06; [14]): 131 nM | Kd (HLA-A*02:03; [14]): 75.2 nM | Kd (HLA-A*02:02; [14]): 0.69 nM

YLIHDNIMYT
Kd (HLA-A*02:01 [2]; [13]): 1.4 nM

IWLKLREVY
Kd (HLA-A*30:02; [3]): ≥ 76900 nM

LLFLKDVEP
Kd (HLA-A*02:01 [2]; [13]): 13.4 nM

SALMTLDDL
Kd (HLA-A*02:06; [13]): 99.9 nM | Kd (HLA-A*02:03; [13]): 707 nM | Kd (HLA-A*02:02; [13]): 411 nM

CNLTSTWVTY
Kd (HLA-A*30:02; [3]): ≥ 68900 nM

IMLKANFSV
Kd (HLA-A*02:01 [2]; source organism: Influenza A virus (A/Hokkaido/20/89(H3N2))): 0.3 nM

LAEHISDSI
Kd (HLA-A*02:06; [13]): 19200 nM | Kd (HLA-A*02:03; [13]): 731 nM | Kd (HLA-A*02:02; [13]): 45.2 nM

FSLGILCVSI
Kd (HLA-A*02:06; [8]): 3.63 nM | Kd (HLA-B*51:01; [8]): ≥ 39500 nM

TIDAINKCV
Kd (HLA-A*02:06; [13]): 406 nM | Kd (HLA-A*02:03; [13]): 634 nM | Kd (HLA-A*02:02; [13]): 90.1 nM

MVEYLENQL
Kd (HLA-A*02:06; [13]): 3960 nM | Kd (HLA-A*02:03; [13]): 6460 nM | Kd (HLA-A*02:02; [13]): 343 nM

KQNKFGDSPL
Kd (HLA-A*02:06; [13]): 5080 nM | Kd (HLA-A*02:03; [13]): 216 nM | Kd (HLA-A*02:02; [13]): 89.6 nM

HLALTCILK
Kd (HLA-A*03:01; source organism: Salmonella enterica subsp. enterica serovar Typhi): 123 nM

PPTAGILARW
Kd (HLA-B*53:01; [8]): 10300 nM

EEFCDMLRL
Kd (HLA-B*40:01; source organism: Mammarenavirus lassaense): 255 nM

KTVAGSFAS
Kd (HLA-A*02:06; [15]): 9130 nM | Kd (HLA-A*02:03; [15]): 3810 nM | Kd (HLA-A*02:02; [15]): 1590 nM

DITNILGGV
Kd (HLA-A*02:06; [13]): 7430 nM | Kd (HLA-A*02:03; [13]): 1640 nM | Kd (HLA-A*02:02; [13]): 9880 nM

LTKDRKMLEL
Kd (HLA-A*02:06; [13]): ≥ 20800 nM | Kd (HLA-A*02:03; [13]): 133 nM | Kd (HLA-A*02:02; [13]): 7700 nM

QLMCQPILLL
Kd (HLA-A*02:06; [14]): 325 nM | Kd (HLA-A*02:03; [14]): 217 nM | Kd (HLA-A*02:02; [14]): 92.3 nM

FKLTYQNKVV
Kd (HLA-B*51:01; [5]): ≥ 60000 nM

ILGRYLPEF
Kd (HLA-B*15:01; [7]): 150 nM | Kd (HLA-A*69:01; [7]): 18100 nM | Kd (HLA-A*02:01 [1]; [7]): 4130 nM | Kd (HLA-B*58:01; [7]): 146 nM

RRRPVTRPL
Kd (HLA-B*07:02; source organism: Candidatus Solibacter): 3.4 nM

YALCTLLHL
Kd (HLA-A*02:06; [14]): 1.53 nM | Kd (HLA-A*02:03; [14]): 768 nM | Kd (HLA-A*02:02; [14]): 1330 nM

PLHIVCSKT
Kd (HLA-A*02:06; [13]): 3890 nM | Kd (HLA-A*02:03; [13]): 2150 nM | Kd (HLA-A*02:02; [13]): 997 nM

KLLYAAEMV
Kd (HLA-A*02:06; [13]): 17.9 nM | Kd (HLA-A*02:03; [13]): 54.3 nM | Kd (HLA-A*02:02; [13]): 57.6 nM

IMTSTRTIIL
Kd (HLA-A*02:06; [13]): 438 nM | Kd (HLA-A*02:03; [13]): 52.5 nM | Kd (HLA-A*02:02; [13]): 1020 nM

PPFGESNIV
Kd (HLA-B*51:01; [3]): 1790 nM

HLAGFIHAC
Kd (HLA-B*15:01; [16]): 2280 nM | Kd (HLA-A*02:01 [1]; [16]): 21.5 nM

KVASEGFQY
Kd (HLA-A*30:02; [8]): 28.9 nM

PTSETMYLT
Kd (HLA-A*02:06; [13]): ≥ 77100 nM | Kd (HLA-A*02:03; [13]): 3640 nM | Kd (HLA-A*02:02; [13]): 10400 nM
